Experimental data: the DeepSol protein solubility set

Assay: soluble on expression in E. coli; label from the status in PepcDB or PDB records

Sequence	soluble on expression in E. coli
MEPHLKIDVSSASGSTTTGATASTSEAPQDSQAQQTMPPPSSDWSNQFNSPEAEDMGPFVEQLLPFVRASAYNWFHLQAAKRRHFKEFDKKMCASEENAKLAELQNDRDELKVKWASRLLGKIKKDIQNDDKEAFISAINGSEPNKCIISVADQKGKMRRIDCLRQADKVWRLDLVTIILFKGIPLESTDGERLERSEACVHPLCINPFHMAISVRGLDVFMANYLKDVDTKITLTYPRNDELSDTVMVKQEPGEQTIVAPHAVLGTSSTHTRVWETNSERNAETIIITYDPQKACHTYFGGRATLAQQSLSAGNTYMVNKTAVDNNFFNAKRSVLCLPPPPIQNCFPYPIAGTSDSQQMDMSEDSNDGPSEKRSRDISSHDSPNSSTNDEVRRIVESGTEKLVLGSSIWAAPGQFSRTQQNQGAPGTSRQVRPLPDFQSQDSARSPGAFRSTAKPVCRMTVNTGNHGDVGVVVVDERNREHVIHAQHIVNALSSLRTTPSMRESPVGRKRMHPHTSNSFEFLNCNQEMNKNEGALGSDISPTHTAVSNLISRESSGYMASPTKFTTARGDTTSFSKIFQKIEEKHLQHNQPSTSYCNSQIQPPILSSKPVDSSVKLIAPVAVKPIMSGCNSIIPSPITTPRITPSFRMLEDDSLINVLGQLAHSNDGTTLNDSFIQHLIDTNSRSPLLSSGNAFSALSMGARIEFVGCSNGIGRSSKYCTGRPANSKCNVTSSSRAANQAPVSNTPQDPNAPKLPTDFSHALRNEKK	not soluble
ESEILGLFQRWQAAHGQRSGKALEGVYAPRLDYYGRAQTRERTLSAKQAFFARHPDFEQRIVAAPQIVPGDQEGRYEVRFVKQVRLDGRLRNYPGLLLAERAGPGDTWRFVGESDEITRYAVDPRYTPLARGRFAGTEADFAWVVAHAPNSAALCDEYEDCRCDLWSADARVPPK	not soluble
LNKWMKELSKTTSLDPVKPVDVLLTENDITIKNIRDMNRLRPFGTDFSRPIFEMDDLSVSSVKAIGQQKNHLKLTLGESNIAALFWQNGHLEPELQDEQPINILGSVQINEWNGNQSPQ	not soluble
MGSDKIHHHHHHMQDFLEFQSISKGYPGVQALSEVSFSVRKGAVHGLMGENGAGKSTLIRVLSGDQAADTGEIRINGEPQHYRSVRDAFNAGVIVIHQELQLVPELTVAENLWLGRFPGKAGVIDRRQLIRVVSDRLAEIGIDVDPEAKVASLSIGERQMVEIAKAVMTDARVIALDEPTSSLSSRESEILFALIDRLRSNGTVILYVSHRLDEIFRLCNSLTVLRDGRLAAHHPDISKVGREQIIAEMVGREISNIWGWRARTLGAARLTVERVSGANLPQPISFTVRAGEILGFFGLIGAGRSEMARLVYGADRRRQGKVLVDGLAVPADSPRLSIRAGVVLCPEDRKFDGIVQGRSIEENMAISSRRHFSPFGVVDKGKEAELAERFIAKLRVRTPSRHQDIVNLSGGNQQKVILGRWLSEEGVKVLLIDEPTRGIDVGAKSEIYEILYELAAQGMAIVVISSELPEVMGIADRILVMCEGRIAAEIDRSDFDEHRILAAALPDASATTATLPEQVS	not soluble
MKVIVVGCTHAGTFAVKQTIADHPDADVTAYEMNDNISFLSCGIALYLGKEIKNNDPRGLFYSSPEELSNLGANVQMRHQVTNVDPETKTIKVKDLITNEEKTEAYDKLIMTTGSKPTVPPIPGIDSSRVYLCKNYNDAKKLFEEAPKAKTITIIGSGYIGAELAEAYSNQNYNVNLIDGHERVLYKYFDKEFTDILAKDYEAHGVNLVLGSKVAAFEEVDDEIITKTLDGKEIKSDIAILCIGFRPNTELLKGKVAMLDNGAIITDEYMHSSNRDIFAAGDSAAVHYNPTNSNAYIPLATNAVRQGRLVGLNLTEDKVKDMGTQSSSGLKLYGRTYVSTGINTALAKANNLKVSEVIIADNYRPEFMLSTDEVLMSLVYDPKTRVILGGALSSMHDVSQSANVLSVCIQNKNTIDDLAMVDMLFQPQFDRPFNYLNILGQAAQAQADKAHK	soluble
MEALDLLLNRRSIAKLDAPAPQNEALDNILRAGLRAPDHGALTPWRFVVAQGEGLAKLAAILEQAEIANGSDEAVISKAKNAPFRAPMVITVIAKVTHSEKIPAFEQHLSAGCAVQAMQMAAIAQGFQGIWRSGSWMFHPVVRRAFNVQGEDHIVGFLYLGTPGTTAAKVPERELSKYVEYL	not soluble
MGAQGSRVDFKQVVLDVTSKPGKDDETFWDQAWWPDSVNEIFAMISGEDIRKLRDESPKNLATLVYKTVEKLQFSRNHPATIDQKKTINAIRLLTRIVPYLLEDAEWRGYFWSPIPHGDAAKPLAAVLLETLSDLLFCPEFTITHANGQKIDDLSTIDSCEYIWEAGVGSGNKPPMVALHYQNRTEILKLLLTCFAELIYAPVSDETRLRWVIHFTSVTNPHVLPIFTSLLNIVCAYDPVGYGLPYNYLLFNDSREPLVEIALQVLIVCLDKETQPNTDDSGYKDNYFINYLSRIHREEDFDFMLKGITRLLSNPIHSSSSYLPNSTKRVNFHQELLVLLWKCCEINQKFMFYVLKTSDVLDILVPILYHISDARNDSGRVGLIHMGVFIILLLSGERNFGVRLNKPYTAKANINVQTFTGTHADLLILVIHKLITTGNYRLQTLFDCFLTIMVNVSPYMKSLSMVAANKLVHLVEAFSTPWFLFSSPTNPQLVFSLLEVFNNVIQYQFDGNSNLIYTIIRKRNVFYQLSNLSTDAASIAKTLSGRKSKSANRDEMVDQLKSPTSTAPPEIPAADAPAAQTLGGVSTTTGLAATPALASMTGNVGNWEERPESSQDNEWIATQEWADAWKSKLPLQTIMRLLQVLVPQVEKICIDKGLTDESEILKFLQHGTLVGLLPVPHPIVIRRYQTNIGTNHWFRIYMWGVIYLKHTQPPIWYDTDVKLFEVQRA	not soluble
MGSSHHHHHHSSGRENLYFQGHMVIIDNKHYLFIQKLGEGGFSYVDLVEGLHDGHFYALKRILCHEQQDREEAQREADMHRLFNHPNILRLVAYCLRERGAKHEAWLLLPFFKRGTLWNEIERLKDKGNFLTEDQILWLLLGICRGLEAIHAKGYAHRDLKPTNILLGDEGQPVLMDLGSMNQACIHVEGSRQALTLQDWAAQRCTISYRAPELFSVQSHCVIDERTDVWSLGCVLYAMMFGEGPYDMVFQKGDSVALAVQNQLSIPQSPRHSSALWQLLNSMMTVDPHQRPHIPLLLSQLEALQPPAPGQHTTQIL	soluble
MGSDKIHHHHHHMPTYDAVIVGSGINSLVCAAVLARSGKRVCVLERNSTLGGCIRTEALHAPGYLHDTLSTAHPLFVTSPGYAELKDDLHQAGLSYANNDTPTGVLLPGNRSLILATSRERNVSAFNALASGDGDAYLAAMQEVEQNAGLVFSLLGNELWSADVAKTVAGRLWKQGVHDTVAFFSPALMSCRSWLETRIRSDLVRALLAPWVLHTGLGPESAMSALMGKVVAFSLEAVGLPIVQGGNARTVEAFRQIVESHGGAFHVNADVEDVLVENGSARGVRTRDDRVFMGKEIICNVTPGQLYGKLLAPAHVPPALRQQAAEYRYGKGNMQIHLSLSAPPDWPHAHLRNVIYLHLTSGLDGVSRAVSEAERGLLPAEGTICVAQPCAVDPSRSPAGGWVLWIQVPECPRTIKGDALGEIDAPADGRWTPEIRERYADRIIDRIARQVPNLKASIVGRTVLSPADLEAMNINLVGGDPYSGECSIDQFMVWRPLRGARNHATPVKHLHHIGASTHPGPGLGGTSGYHVANALARKRAKSNRT	not soluble
MAHHHHHHMHPFYTIRYPPSKGSNESQPILVTDTAIEPLFFCIVYSIEFQCPVQTTESRTANSRSSSFPFGGRASGSGGKREANELHVCPVENTSKLLGNVTYVSCLDHNPTLLASLQTAVDAARAIPIPEDEQKVPLQLCVRLLHKQTRWLWEESRPLVEWTFKIVKTRGLSYAAVPEASSGASARNTNVEFVHASGPAQIREVLQFILKHSYEAIDLNTFSDFKSGELVFEVFVDQAR	soluble
MGSDKIHHHHHHMESFYRTHAYLVEHTNAPVRRDLMDEIDWSDRLIGIKGTRGVGKTTFLLQYAKEKFGTDRSCLFINMNNFYFSGHSLVDFANEFQKRGGKVLLIDQVFKHPEWSKELRMCYDRFPSLKIVFTGSSVMRLKEENLELRDIAKSYNLRGFSFREFLNLQTGMKFRAYSLEEILSTHEQIAKGVLSKVRPLDYFQDYLHHGFYPFFLEKRNFSENLLKTMNMMVEVDILLIKQIELKYLSKIKKLLYLLAVDGPKAPNVSQLASDVQTSRATVMNYIKYLADARLINLVYPKGEEFPKKPSKIMMHNSNLMYSIYPVKVEEQDVLDTFFVNTLWKDHKVHKGDKNVSFMVDEVMPFKICAEGTKIKNNPDVTYALQKAEIGRGNQIPLWMFGFLY	not soluble
GPLGSLVNVIRRESGNPDLLELLMDLNCYTLEVTEGYLKKVNVTEVNGDNVLGPIHVITTVVSSLVRNGLLIQSSKFISKVLLTVESIVMSLPKDETMLGGIFWLSNLSRLPAFAANQKTLYEANGGDEKDKLTLIYLNDLENETLKVFDKIYSTWLVKFMKHASAHIEIFDMVLNEKLFKNSGDEKFAKLFTFLNEFDAVLCKFQVVDSMHTKIFNDTLKYLNVMLFNDLITKCPALNWKYGYEVDRNIERLVSWFEPRIEDVRPNLIQIIQAVKILQLKISNLNEFKLLFDFWYALNPAQIQAILLKYKPANKGEAGVPNEILNYLANVIKRENLSLPGKMEIMLSAQFDSAKNHLRYDTSAITQNSNTEGLATVSKIIKLDRK	soluble
MSGLKLVTVLLLALCTATEAAKCRGKYMEMRGREGFVTRGGCRGLDSQIQEEYWTTVGFDGDLRDGRTTDDFLVFPANENNGHTQTNSFVGYWDMKESVNPITRSKYGENVHYEAFGHAFIKPDGKVCGWFVGSHKEVVEVCGGFRVLSRSRFNPHQPIPFEWVQGEQYRNRDVLGFHHHKIAKYEANADEVLFGDADVKGKKFNGVSINNEQRVEVDTPETFHRKVWLLRKKSTQPPSDVRAAYHHPRKLL	not soluble
MGSDKIHHHHHHMSSLTKMLLILDLFSVDKPIWSADEIIQYCGHSRPTGYRYVKELCDAGLLRRAEGGYSLGPRVIELDYYIRQCDPLLIACRPVMVRVAQESGCDVLLASMYGTKIMAVHQELAHETGQIAFGRGRPMPLFRGGGSKVLLASMTASQLKKLYDRYGAEIAEAGLGATWADFRKQMLKYRNDGHVVSIGELDPNAAGVAIPIPVGDALDPAALVILTTRSRFDLMEKALLVDMAMNAARQIETSMRGNREVQAKALLLS	not soluble
MGSDKIHHHHHHMPTVKLTKNITIMTGSPNTLIYDNRVVIDLGGKNSSVDINAEVQLATHGHADHIAGLLKKDAKIRYLPKEDYWSLTLMGRRAMIYGCSSKDSDIFTFDYVKENIESIDIEVRTSEIEVIKLPGHTPGHSGYIVDNVLYAGDAFFGEKVLEGFSVPFYTDFWTALESLNKVKELAKSVNNIVISHGPVYTNKNKMVSILESNIIYAQNLIGKILDMLSNNELTVEEIVVKLKQDLTPSNVLLNSVVVRSILFGLENIEYNVSQKGLVFRRRVH	not soluble
MADETELKRLYWHSRRGMLELDVLLVPFVQEVYPGLDAEDQARFRKLLECEDQDMFGWFMQRGEPEDADLRRMVRMILDRVQPD	not soluble
MATEDAVREALATVNDPEINRPITELGMVKSVEIGADGAVAVAVYLTVSGCPMRDTITQRVSDAVSRVEGVTRVDVELDVMSDEQRKELATALRGGQTEREVPFAKPGSLTRVYAVASGKGGVGKSSVTVNLAASMAADGLKVGVVDADIYGHSVPRMLGADGRPTQVENMIMPPSAHGVKVISIGMFTPGNAPVVWRGPMLHRALQQFLADVYWGDLDVLLLDLPPGTGDIAISVAQLVPNAEILVVTTPQQAAAEVAERAGAIAVQTHQKIVGVVENMSGLPCPHCGEMVDVFGTGGGQTVADGLTRTTGASVPVLGAIPIDVRLREGGDEGKPVVLSDPDSPAGAALRSIAGKLGGRQRGLSGLSLGITPKNKFLEHHHHHH	soluble
